Assay results: US20180022822A1, “NOVEL ANTI-FIBROBLAST ACTIVATION PROTEIN (FAP) BINDING AGENTS AND USES THEREOF” (Mabimmune Diagnostics AG, priority 2016, published 2018)

What was measured:
FAP in human plasma = biological target: T1, FAP in human plasma (Homo sapiens, UniProt Q12884); experiment: immunoprecipitation of FAP from human plasma, α2AP-AMC cleavage; assay type: biochemical; conditions: compared to plasma before immunoprecipitation
T1 construct: from tissue; host or cells: human blood plasma
T1 sequence (Q12884 24-760 limits assumed): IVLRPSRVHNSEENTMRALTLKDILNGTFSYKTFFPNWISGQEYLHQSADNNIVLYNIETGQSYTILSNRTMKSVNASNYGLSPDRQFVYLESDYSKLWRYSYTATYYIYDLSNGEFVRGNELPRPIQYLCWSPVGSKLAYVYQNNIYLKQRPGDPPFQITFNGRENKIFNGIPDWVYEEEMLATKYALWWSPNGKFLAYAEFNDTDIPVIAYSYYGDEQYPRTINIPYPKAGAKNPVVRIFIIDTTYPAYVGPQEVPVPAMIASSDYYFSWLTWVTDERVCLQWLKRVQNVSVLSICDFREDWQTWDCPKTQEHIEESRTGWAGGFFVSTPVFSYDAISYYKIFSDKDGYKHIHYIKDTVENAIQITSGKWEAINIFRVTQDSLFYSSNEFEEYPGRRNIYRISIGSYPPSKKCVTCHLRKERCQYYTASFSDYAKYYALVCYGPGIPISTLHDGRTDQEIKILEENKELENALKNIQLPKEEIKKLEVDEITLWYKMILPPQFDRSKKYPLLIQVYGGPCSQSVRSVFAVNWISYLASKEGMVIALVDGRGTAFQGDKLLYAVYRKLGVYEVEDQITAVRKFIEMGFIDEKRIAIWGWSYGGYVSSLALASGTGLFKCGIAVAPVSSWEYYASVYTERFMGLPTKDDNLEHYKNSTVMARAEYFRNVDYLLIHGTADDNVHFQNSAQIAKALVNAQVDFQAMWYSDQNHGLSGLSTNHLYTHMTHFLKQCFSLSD
Protocol: 100 μL of PureProteome G Magnetic Beads (Millipore LSKMAGG02) were suspended in 500 μL of 25 mM TRIS, 0.15M NaCl, and 0.1% Tween 20. Human plasma was diluted 1:5 in PBS to an end volume of 125 μL, separated into four tubes, and incubated for 30 min at RT with rotation. Beads were then collected with a magnetic stand, and the pre-cleared supernatant was transferred to a new tube containing magnetic beads coated with 82C2, 43A11, or 3A1. Antibody-conjugated beads were incubated with the plasma dilution overnight at 4° C. while rotating. Beads were then collected with a magnetic stand and the supernatant was removed of analysis of α2AP-AMC cleavage activity. To determine α2AP-AMC activity in the supernatants, a half area black 96 well plate was blocked with sterile filtered 5% BSA at 37° C. for 1 h. Then 40 μL of PBS was added to all the wells, 5 μL of the supernatant solutions to the appropriate wells, and 5 μL of α2AP-AMC solution in methanol was added for a final assay concentration of 10 μM. The fluorescence intensity (cleaved AMC) was measured at 360 nm excitation and 460 nm emission every 3 min over a total time of 30 min and the reaction velocity was calculated using Graphpad Prism 6 software.

[1] = tested on: human breast cancer tissue sections; experiment: immunohistochemistry on human breast cancer tissue sections; conditions: chimeric form with murine constant domain, 10 μg/mL, DAB
Protocol: Human breast cancer tissue sections were allowed to dry for 10 min at room temperature, and then fixed for 15 minutes in 4% paraformaldahyde, followed by washing three times 5 minutes in PBS. Slides were then incubated for 5 min in 0.3% H2O2 in PBS to block endogenous peroxidase activity, and subsequently washed 3 times 5 min in PBS. Endogenous biotin was then blocked using the Biotin-Blocking System (DAKO X0590), followed by times washing with PBS. Blocking of unspecific antibody binding and permeabilization of the tissue section was performed using blocking buffer (5% goat serum, 5% horse serum, 0.3M glycine, 5% BSA, and 0.5% Triton X100 in PBS). Tissue sections were then stained with a recombinantly engineered chimeric form of NI-206.82C2 with a murine constant domain and the human variable domain of the original antibody and a matched isotype control (43A11) at 10 μg/mL in permeabilization buffer overnight at 4° C. Following three PBS washing steps, the sections were incubated with a biotinylated goat anti-mouse antibody for 1 h at room temperature. For amplifying the target antigen the VECTASTAIN ABC kit (Vector Labs) was used, followed by development with 3,3′-diaminobenzidine (DAB) and counterstained with Mayer's haematoxylin blue. […]

B1: NI-206.82C2: human-derived recombinant anti-FAP antibody; VH SEQ ID NO: 2 or 4 (PIMC), VL SEQ ID NO: 6 (antibody, V domains shown)
VH: QVQLQQSGPGLVKPSQTLSLTCAISGDSVSSNSVTWNWIRQSPSRGLEWLGRTYYRSKWYNDYAVSVKGRITINPDTSKNQFYLQLKSVTPEDAAVYYCARDSSILYGDYWGQGTLVTVSS
VL: QAVLTQPSSLSASPGASASLTCTLPSGINVGTYRIFWFQQKPGSPPQYLLSYKSDSDNHQGSGVPSRFSGSKDASANAGILLISGLQSEDEADYYCMIWHSSAWVFGGGTKLTVL
FAP in human plasma
  rate of α2AP-AMC cleavage in plasma after immunoprecipitation: significantly reduces
[1]
  staining of human ductal carcinoma in-situ tissue: Positive staining
  staining of human invasive ductal carcinoma tissue: Positive staining
